Measured values published in patent publication US20090075921A1, “Bone/joint disease sensitivity gene and use thereof” (Riken, priority 2004, published 2009).
d = 2'-deoxy (DNA); r = 2'-OH (RNA)

Assays:
[1] = test system: NHAC; assay: Effects of SB431542 on gene expression induction by TGF-β1 in NHAC; type: cell-based, human; settings: SB431542 10 μM added 30 minutes before TGF-β1 10 ng/ml, 12 hours
Experimental: A time course of the expression of the asporin gene by TGF-β1 in NHAC was examined as described below. Cells were inoculated to a 12-well plate at 1×10^5 cells/well, and cultured in a DMEM/F12 containing 10% FBS until they became confluent. The medium was exchanged with a DMEM/F12 containing 0.2% FBS, and the cells were cultured for 24 hours, after which TGF-β1 (10 ng/ml) was added, total RNA was extracted over time, and the expression levels of the asporin and GAPDH genes were examined. As a result, the expression level of the asporin gene maximized when the cells were cultured in the presence of TGF-β1 (10 ng/ml) for 12 hours, and thereafter the expression level decreased over time (FIG. 46).
In the experimental system for asporin gene expression induction by TGF-β1 used in the method described in Example 54, the effects of SB431542 (Sigma) (10 μM), an inhibitor of TGF-β1 type 1 receptor phosphorylation, on the induction of the expression of the asporin, type II collagen, aggrecan, and TGF-β1 genes (12 hours), when added 30 minutes before addition of TGF-β1 (10 ng/ml), were examined.

[2] = test system: NHAC; assay: Asporin-specific siRNA transfection in NHAC, gene expression; type: cell-based, human; settings: 24 hours, medium with 10 ng/ml TGF-β1
Experimental: Asporin-specific siRNA (Si9: […]; SEQ ID NO:35) was designed using an siRNA design support system in Takara Shuzo's website (http://www.takara-bio.co.jp/rnai/intro/htm). […] Cells were inoculated to a 12-well plate at 5×10^5 cells/well, and cultured in a DMEM/F12 containing 10% FBS, ITS, 10 ng/ml TGF-β1 and penicillin/streptomycin for 24 hours, and siRNA transfection was performed using TransIT-TKO (Takara Shuzo). Total RNA was extracted from the cells after 24 hours of cultivation, and examined for the expression of the type II collagen, aggrecan and TGF-β1 genes. […] Therefore, endogenous asporin was thought to negatively regulate the expression of cartilage substrate and the expression of TGF-β1 in NHAC.

[3] = test system: ATDC5 cell lines that stably express human asporin; assay: Alcian Blue staining of extracellular proteoglycan in ATDC5 lines stably expressing human asporin; type: cell-based, mouse; settings: Day 21 of cultivation, absorbance at 630 nm
Experimental: The ATDC5 cell lines that stably express human asporin prepared in Example 17 were cultured by the method described in Example 20; using the cells on Day 21 after the start of cultivation, Alcian Blue staining was performed as described below. First, the medium was removed by suction, and the cell surface was washed with cold PBS three times, after which methanol fixation was performed at 4° C. for 2 minutes. The methanol was removed by suction, the cells were once rinsed with distilled water, and then stained using 0.1% Alcian Blue 8GX (Sigma)/3% acetic acid solution at 4° C. for 2 days. The staining solution was removed, the cells were washed with distilled water three times, and then examined under microscope and photographed. Thereafter, the cells were treated with aqueous solution of 6 M guanidine hydrochloride to extract the stained proteoglycan, after which the absorbance at 630 nm was measured.

[4] = test system: ATDC5 cell lines that transiently express human asporin; assay: TGF-β1-stimulated aggrecan and type II collagen gene expression in ATDC5 transiently expressing human asporin; type: cell-based, mouse; settings: transient expression vs mock, TGF-β1 10 ng/ml, 18 hours
Experimental: ATDC5 cells were inoculated to a 12-well plate at 0.5×10^5 cells/well, and cultured in a medium 1-2 (DMEM/F12 medium containing 5% FBS, ITS (Sigma), penicillin (100 U/ml) and streptomycin (100 μg/ml)). 24 hours later, pcDNA3.1-ASP13 or pcDNA3.1-ASP14 were introduced using FuGENE-6 (Roche), and the cells were cultured for 24 hours. Next, the medium was exchanged with a medium 1-2 containing 0.2% FBS, and the cells were cultured for 12 hours, after which TGF-β1 (10 ng/ml) was added, and the cells were further cultured for 18 hours, after which total RNA extraction, purification, cDNA synthesis, and real-time PCR were performed in the same manner as Example 18. As a result, the elevation of the TGF-β1-stimulated expression levels of the aggrecan and type II collagen genes was suppressed in the ATDC5 cells allowed to transiently express human asporin D13 or D14 compared to mock (FIG. 14).
First, the expression level of the aggrecan gene elevated by TGF-β1 stimulation in mock is written as (AM), and the expression level of the type II collagen gene at the same time is written as (CM). Next, the TGF-β1-stimulated aggrecan gene expression level suppressed by the forced expression of asporin D13 is written as (A13), and the type II collagen gene expression level at the same time is written as (C13). […] Thus, the suppression rate of the TGF-β1-stimulated aggrecan gene expression in the asporin D13 expressing line can be expressed as (A13)/(AM), and the suppression rate of the type II collagen gene expression as (C13)/(CM). Likewise, the suppression rate of the TGF-β1-stimulated aggrecan gene expression in the asporin D14 expressing line can be expressed as (A14)/(AM), and the suppression rate of the type II collagen gene expression as (C14)/(CM). Furthermore, by making a correction by dividing these values by the human asporin mRNA content obtained with TGF-β1 stimulation, the suppression rate of the aggrecan and type II collagen gene expression per human asporin mRNA content were calculated. […]

[5] = test system: ATDC5 cell lines that stably express human asporin; assay: Cartilage differentiation culture of ATDC5 lines stably expressing human asporin; type: cell-based, mouse; settings: stably expressing lines, 5, 9, 15 or 21 days; mock peaks on Day 9
Experimental: The ATDC5 cell lines that stably express human asporin prepared in Example 17 were inoculated to a 12-well plate at 0.3×10^5 cells/well, and cultured in a medium 1-1 for 5, 9, 15 or 21 days, after which total RNA extraction, purification, cDNA synthesis, and real-time PCR were performed in the same manner as Example 18.

[6] = test system: ATDC5 cell lines that stably express human asporin; assay: TGF-βs-stimulated aggrecan and type II collagen gene expression in ATDC5 lines stably expressing human asporin; type: cell-based, mouse; settings: stably expressing lines vs mock, TGF-βs 10 ng/ml, 24 hours
Experimental: Plasmid DNAs for allowing ATDC5 cells, a mouse cartilage stem cell line, to stably express human asporin were prepared as described below. First, by the method described below, full-length cDNAs of human asporin D13 and D14 were acquired. Using KOD-plus (Toyobo), according to the method described in the attached protocol, a reaction mixture was prepared. Per 25 μl of the reaction mixture, […] each of a sense strand primer comprising the initiation codon and a restriction enzyme XhoI site, and an antisense strand primer comprising the stop codon of aspotin and a restriction enzyme BamHI site, were used as the primers, and 1 μl (10 ng as total RNA) of a cDNA solution prepared from total RNA extracted from knee articular cartilage from OA patients carrying the D13 allele and the D14 allele of aspartic acid repeat polymorphisms in asporin heterologously was used as the template. […]
The TGF-βs-stimulated expression of the aggrecan and type II collagen genes in ATDC5 cell lines that stably express human asporin was quantified by the method described below. […] For real-time PCR, reactions were performed using QuantiTect SYBR Green PCR Kit (QIAGEN), and detection and quantitation were performed using ABI PRISM 7700. […]

Molecule: NC(=O)c1ccc(-c2nc(-c3ccc4c(c3)OCO4)c(-c3ccccn3)[nH]2)cc1 [SB431542]
- induction by TGF-β1 of the expression of the asporin, type II collagen, aggrecan, and TGF-β1 genes [1]: inhibited the induction by TGF-β1 of the expression of these genes

Molecule: UCCCUUCAGGAUUACCAGATT (siRNA; sugars from the 5' end r19 d2, backbone not given here) [asporin-specific siRNA]
- expression of the type II collagen, aggrecan and TGF-β1 genes [2]: significantly increased

B1: human asporin D13: human asporin with 13 aspartic acid repeats, expressed from pcDNA3.1-ASP13 (SEQ ID NO:4) (protein, UniProt Q9BXN1 33-380, looked up)
Asporin: DMEDTDDDDDDDDDDDDDDEDNSLFPTREPRSHFFPFDLFPMCPFGCQCYSRVVHCSDLGLTSVPTNIPFDTRMLDLQNNKIKEIKENDFKGLTSLYGLILNNNKLTKIHPKAFLTTKKLRRLYLSHNQLSEIPLNLPKSLAELRIHENKVKKIQKDTFKGMNALHVLEMSANPLDNNGIEPGAFEGVTVFHIRIAEAKLTSVPKGLPPTLLELHLDYNKISTVELEDFKRYKELQRLGLGNNKITDIENGSLANIPRVREIHLENNKLKKIPSGLPELKYLQIIFLHSNSIARVGVNDFCPTVPKMKKSLYSAISLFNNPVKYWEMQPATFRCVLSRMSVQLGNFGM
- intensity of staining with Alcian Blue (extracellular proteoglycan) [3]: mock>D13>D14
- elevation of the TGF-β1-stimulated expression levels of the aggrecan and type II collagen genes [4]: suppressed
- expression of the aggrecan and type II collagen genes during cartilage differentiation culture [5]: did not rise
- elevation of the TGF-β1-stimulated expression levels of the aggrecan and type II collagen genes [6]: suppressed compared to mock
